Source: US7205387B2, “Recombinant polypeptide useful for neurotrophin receptor mediated gene delivery and as neurotrophin agonist” (Agency for Science, Technology and Research, priority 2003, dated 2007)
Bridge positions count the residues as written; N and C are the ends. Ends that are not written are not given here.

B1: SPKR4NL1-2: chimeric protein: (SPKR)4 DNA-binding domain, α-helical linker, targeting domain with loops 1 and 2 of NGF (aa 17–67), His10 tag (protein)
chain: MGHHHHHHHHHHSSGHIEGRHMSPKRSPKRSPKRSPKRGGTYLSEDELKAAEAAFKRHNPTGSCSVSVWVGDKTTATDIKGKEVMVLGEVNINNSVFKQYFFETKCRDPNPVDSG
modifications: SPKR4NL1-2

What was measured:
Akt = test: Phospho-Akt immunoblot in PC12 cells; format: cell-based, rat; conditions: 5 μM peptide, 20 min
Method: Immunoblotting experiments were conducted to test whether the chimeric polypeptides could, like NGF, induce autophosphorylation of TrkA and activation of its signal transduction pathways. PC12 cells were seeded in 6-well plates at a density of 2×10^6 cells/well and cultured in RPMI 1640 containing 0.5% FBS and 0.25% horse serum for 2 days. The low serum concentrations were necessary to reduce the basal levels of phosphorylation. The medium was refreshed two hours before beginning treatment. The cells were incubated with the polypeptides or NGF in serum-free medium for 15–20 min. The cells were then washed in PBS, lysed, and sonicated. The cell lysates were resolved by SDS-PAGE and transferred to a nitrocellulose membrane for immunoblotting. The primary antibodies used include Phospho-TrkA (Tyr490) antibody, Phospho-p44/p42 MAPK (Thr202/Tyr204) monoclonal antibody, and Phospho-Akt (Ser473) monoclonal antibody, all obtained from Cell Signaling Technology (Beverly, Mass., USA). Colorimetric detection was performed by standard techniques after using horse-radish peroxidase-conjugated secondary antibodies. In some experiments, TrkA tyrosine kinase inhibitors K-252a or AG879 (both from Calbiochem, La Jolla, Calif., USA) were used. In these cases, PC12 cells were incubated with 100 nM K-252a or 10 μM AG879 before addition of polypeptides or NGF.

PC12 cells = test: PC12 cell survival assay (MTT, serum-free medium); format: cell-based, rat; conditions: 8 μM, deprived of serum and NGF for 3 days
Method: Undifferentiated or differentiated (by 6-day treatment with 10 ng/ml NGF) PC12 cells seeded onto collagen-coated 96-well plates were exposed to serum-free RPMI-1640 medium containing either NGF or various concentrations of chimeric polypeptides. After 3–4 days of incubation, cell viability was measured by the standard MTT assay. Cell survival was expressed as a percentage of the viability of the NGF-treated control.

plasmid DNA = test: DNA retardation assay (agarose gel electrophoresis); format: binding
Method: This assay qualitatively assesses the ability of a polypeptide or polycation to bind to DNA and thus to retard its migration (by decreasing its charge/mass ratio) through an agarose gel under electrophoresis. For a range of N/P ratios, polypeptide was added to 0.1 μg of plasmid DNA made up to 20 μl with either HEPES-buffered saline (HBS, 150 mM NaCl, 29 mM HEPES, pH 7.3) or 5% glucose. The mixtures were vortexed and incubated at room temperature for 30 minutes before being subjected to electrophoresis in a 0.8–1.0% Tris-borate-EDTA agarose gel stained with ethidium bromide for visualization under ultraviolet light.

| Molecule | activation (phosphorylation) of Akt (Akt) | PC12 viability as % of maximum NGF-promoted survival rate (PC12 cells) | DNA binding / retardation of DNA migration (in words) (plasmid DNA) |
| --- | --- | --- | --- |
| CTTTHTFVKALTMDGKQAAWRFIRIDTACKKKKKKKKKK (CTTTHTFVKALTMDGKQAAWRFIRIDTACKKKKKKKKKK; disulfide 1-29) [NL4-10K] | induced activation | – | – |
| B1 | – | 80% | reduced the mobility of DNA |
